Test results reported in the supplement of paper PMC9170038.

How the values were obtained:
MS2 coat protein = test: apparent KD of MS2 coat protein; higher = weaker reporter binding; conditions: Eterna round: R107
Experimental: (§1)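 RNA-MaP round R107: designed RNA switches with theophylline, tryptophan, arginine or FMN aptamers are transcribed on-chip within common flanks. They are titrated with SNAP-549-labelled MS2 coat protein in RNA-MaP buffer (100 mM Tris pH 7.5, 80 mM KCl, 4 mM MgCl2), without ligand or with the indicated ligand. Median apparent KD per design.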

[1] = test system: K4 kissing-loop RNA reporter; test: apparent KD of K4 kissing-loop reporter; higher = weaker reporter binding; conditions: Eterna round: R107;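 also: bound reporter read as fluorescence of individual clusters on recovered sequencing chips by microscopy, with normalized cluster intensities fitted with a binding model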
Experimental: as §1, with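 “a labelled K4 kissing-loop RNA reporter” for “SNAP-549-labelled MS2 coat protein”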

[2] = input ligand: theophylline 20 uM
[3] = input ligand: theophylline 2 mM
[4] = input ligand: tryptophan 2.4 mM

| Sequence | apparent KD of MS2 coat protein (MS2 coat protein; input ligand: arginine 13.2 mM) | apparent KD of MS2 coat protein (MS2 coat protein; input ligand: none) | apparent KD of MS2 coat protein (MS2 coat protein; [2]) | apparent KD of MS2 coat protein (MS2 coat protein; [3]) | apparent KD of MS2 coat protein (MS2 coat protein; [4]) | apparent KD of K4 kissing-loop reporter ([1]; input ligand: FMN 200 uM) | apparent KD of K4 kissing-loop reporter ([1]; input ligand: arginine 13.2 mM) | apparent KD of K4 kissing-loop reporter ([1]; input ligand: none) | apparent KD of K4 kissing-loop reporter [1, 2] | apparent KD of K4 kissing-loop reporter [1, 4] |
| --- | --- | --- | --- | --- | --- | --- | --- | --- | --- | --- |
| AAAAUAUAGACGGCCGCCACUAUAAUCAUGAGGAACAUGAGGAUCACCCAUGUAUGAGGAUCACCUAGGACCGGGUCAUAUAAAA [#24 Exclusion Tryptophan B] | 14.2 nM | 23.6 nM | 31.3 nM | 29.5 nM | 25.6 nM | – | – | – | – | – |
| AAACAUGACAUGGAUACCAGACACAUGAGGAUCACCCAUGUUGAGGAUCACCCAUGUCCCGUCCCUUGGCAGCCAGCAUGAGGAU [Exclusion Theophylline B 2] | 8.96 nM | – | 11.6 nM | – | 8.83 nM | – | – | – | – | – |
| AAACAUGAGGAUCACCCAUGUUCUCCUGUCCGAGGACCGGUACGGCCGCCACUCGGUUCUCGGGAGGAUGGUCAAAGACUAUCCA [Omei Trp A SS B v8] | 12 nM | – | 16.9 nM | 13.5 nM | – | – | – | – | – | – |
| UGUCAUUGGUCGGCCGCCACUUCAUAUAGAGUGAUGUUCUGAAAGACGGAUCGAAAGAUCUGUCGAAGGACCGGGACCGAUGACU [FiskerMod 12 - Jieux - Same State - Tryptophan B] | – | – | – | – | – | 1100 nM | 810 nM | 1640 nM | 1100 nM | 268 nM |
| UGUCAUUGGUCUGAUACCAGAAGAAAUCUGGAGUGAUGUUCCAAGUCGACAAAAUGUCGCUUCCCUUGGCAGCAGACCGAUGACU [TheoBS 23 #SwitchBubble 13 #StaticStem] | – | – | – | – | – | 393 nM | 331 nM | 377 nM | 222 nM | 349 nM |
| UGUCAUUGGUCUGAUACCAGUACCCUUGGCAGCCAAGGAGUGAUGUUCCAAGGAUACCAGUGCCCUUGGCAGCAGACCGAUGACU [TheoBS 12 #DoubleAptamer #SwitchBubble] | – | – | – | – | – | 920 nM | 563 nM | 1120 nM | 613 nM | 901 nM |
| UGUCAUUGGUCUGAUACCAGUUAGACCGAUAGGUCAAAACUGGAGUGAUGUUCCCAAAAUAACCCUUGGCAGCAGACCGAUGACU [TheoBS 3 #SwitchBubble #StaticStem] | – | – | – | – | – | 280 nM | 149 nM | 152 nM | 282 nM | 191 nM |
| UGUGAGCUGUCGACAAAAGUCGACUAAAAUGAGGAUAUGACGAAAGUCAGAAGGCAUCAAUAAUGGAGUGAUGUUCCUGCUCACU [FmnA 9 U30+A56] | – | – | – | – | – | 373 nM | 432 nM | 809 nM | 790 nM | 763 nM |
| UGUGAUGAGUAGAGUGAUGUUUUGAAGGAUACCAGAGUGUUGUUAUUCCCUUGGCAGCUUGAGUGAUGUUUGAUGUUGUUGUUGU [rcrrmullin] | – | – | – | – | – | 328 nM | 221 nM | 253 nM | 205 nM | 211 nM |
| UGUGAUGUUGUGAUGUUUAGUGUUGUUGGGCAGGAUAUUGUAGAGGCGAGAAGGGCUAGUGUGAUGUAUGAGUGAUGUUUGUAGU [kkollmullin] | – | – | – | – | – | 127 nM | 111 nM | 246 nM | 177 nM | 186 nM |
| UGUGGAGAAUAUGAUACCAGCAGUGAGAGAGAGGAAGUAUAGUGAUGUUAUAUGAGAGAAUGCCCUUGGCAGCAUAUGAAGAAGG [SSTheophylB.E] | – | – | – | – | – | 174 nM | 120 nM | 148 nM | 138 nM | 115 nM |
| UGUGUUUACCUGACUCAGUGAUGUUGAGAAGGAGCGUGGGAAACCACAGGUAGGUCGCUCAACCUAAAUUCAGGUGAGCACUAAA | – | – | – | – | – | 327 nM | 219 nM | 399 nM | 303 nM | 231 nM |
| UUAAUAAUUCAAGGAUAUGUUUUCUAUUUCGAGUGAUGUUCGGAAUUAAUAAAUUUAAAAGAUUAUACAGAAGGUGAUAAAUAGU [Cynwulf-mod#2] | – | – | – | – | – | 87.1 nM | 92.8 nM | 85.9 nM | 115 nM | 81.1 nM |
| UUAGAGAUCUCAGGAUAUCAGUGAUGUUGUAAUCCAGAUCUGAGAUAGAAUUCUAUCUCAGAUCAAUGAGAAGGGAGAUCUCAUU [AK4.2 Exc FMN B] | – | – | – | – | – | 306 nM | 601 nM | 723 nM | 576 nM | 591 nM |
| UUAGUGACAAGUCAGAUUCUGACAAUUGAUACCAGAUAGAAUUCUAUCCCUUGGCAGCAGUGAUGUUGUUGCAAAUAGUCACAUU [AK3 Exc Theophylline A] | – | – | – | – | – | 263 nM | 209 nM | 251 nM | 242 nM | 232 nM |
| UUAUAACCCAGUGAUGUUGGGUAGCGGCCACGAGGACCGGUACGGCCGCCACUCGAGGUUUGACCAGUGAUGUUGGACUAUUUGG [Same state Tryptophan A GF 5] | – | – | – | – | – | 163 nM | 134 nM | 156 nM | 147 nM | 47.1 nM |
| UUAUAUUUUAUAUUUAGAUGAUCUAUAGCACGAGGACCGGUACGGCCGCCACUCGAGUGAUGUUCGAGAGCUAUAGAUCAUCAUU [AK2.2 EXC Tryptophan A] | – | – | – | – | – | 142 nM | 132 nM | 148 nM | 121 nM | 207 nM |
| UUAUAUUUUAUAUUUAGUAGAGCUCUAGCUCGAGGACCGGUACGGCCGCCACUCGAGUGAUGUUCGAGUGGGUGAGCUCUACAUU [AK3 EXC Tryptophan A] | – | – | – | – | – | 124 nM | 95.7 nM | 103 nM | 101 nM | 363 nM |
| UUAUCACCCUAAGGAUAUAGCUAAGUGAUGUUUAGCUCGUCGCAGGGUAAACACUAGGCCCAAAGGCUAGAAGGUAGCUGGUACC [theeternabot_exclusion_KL_FMN_B_35] | – | – | – | – | – | 70.6 nM | 66.9 nM | 74 nM | 81.3 nM | 69.6 nM |
| UUAUUAAUCGCAGAUACCAGUCCAGAAUGAAUACUAUAGUGAUGUUAUAAUAAAGGGAAGGACCCUUGGCAGCUGUAAUAUAUUU [AstrosSsTheB#3] | – | – | – | – | – | 371 nM | 278 nM | 401 nM | 240 nM | 280 nM |
